The binders below were run against T1, human GPRASP2 (G protein-coupled receptor associated sorting protein 2), full length (human, UniProt Q96D09 1-838) (assay: NMR titration; 1D 1H NMR (…) of 100 uM peptide before and after addition of hGPRASP2 to 0.78 uM; 600 MHz, 298 K; 50 mM sodium phosphate pH 8, 50 mM NaCl, 0.002% NaN3, 100 uM DTT, 90% H2O/10% D2O). Details: both partners purified.
T1 construct: G protein-coupled receptor associated sorting protein 2 (GPRASP2), human, full length; also called hGPRASP2; full-length hGPRASP2; source: E. coli Rosetta2 (DE3), purified (IMAC, TEV protease, second IMAC, size exclusion chromatography)
T1 sequence (looked up): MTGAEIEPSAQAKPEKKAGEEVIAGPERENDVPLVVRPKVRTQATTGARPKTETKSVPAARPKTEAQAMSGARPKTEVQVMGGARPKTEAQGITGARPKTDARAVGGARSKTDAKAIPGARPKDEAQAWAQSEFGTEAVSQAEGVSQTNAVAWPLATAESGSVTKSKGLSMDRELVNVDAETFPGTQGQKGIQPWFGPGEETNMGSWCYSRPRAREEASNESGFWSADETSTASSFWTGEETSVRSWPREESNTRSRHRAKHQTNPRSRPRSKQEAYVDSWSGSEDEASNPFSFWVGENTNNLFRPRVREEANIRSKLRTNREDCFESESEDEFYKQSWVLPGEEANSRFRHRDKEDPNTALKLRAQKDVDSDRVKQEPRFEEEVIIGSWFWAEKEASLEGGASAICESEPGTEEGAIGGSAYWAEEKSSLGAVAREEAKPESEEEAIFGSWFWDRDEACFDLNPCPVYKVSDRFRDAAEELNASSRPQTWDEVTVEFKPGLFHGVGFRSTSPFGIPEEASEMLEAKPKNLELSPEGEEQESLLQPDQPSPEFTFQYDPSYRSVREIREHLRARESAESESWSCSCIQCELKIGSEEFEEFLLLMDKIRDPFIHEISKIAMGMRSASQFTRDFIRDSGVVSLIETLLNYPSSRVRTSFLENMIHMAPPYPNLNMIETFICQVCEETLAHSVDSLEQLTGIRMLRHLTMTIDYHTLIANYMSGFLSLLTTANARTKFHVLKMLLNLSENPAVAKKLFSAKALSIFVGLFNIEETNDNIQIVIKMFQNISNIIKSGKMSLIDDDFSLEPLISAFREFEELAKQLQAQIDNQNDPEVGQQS

| Binder | binding result |
| --- | --- |
| STLVWTKATLLIWRRTWCRL (peptide, UniProt Q99835 533-552, looked up, also called hSMOM2 peptide; peptide from human SMOM2; source: synthetic peptide (PSL GmbH)) [hSMOM2 (aa533-552-W535L) peptide] | binds |
| STWVWTKATLLIWRRTWCRL (peptide, UniProt Q99835 533-552, looked up, source: synthetic peptide (PSL GmbH)) [hSMO-WT (aa533-552) peptide] | binds |
| KATLLIWRRTWCRL (peptide, UniProt Q99835 539-552, looked up, source: synthetic peptide (PSL GmbH)) [hSMO-WT (aa539-552) peptide] | binds |
